Results reported in patent US20170081400A1 (CEPHALON, published 2017).

T1: human TL1A extracellular domain with N-terminal HIS and FLAG tag (human, UniProt O95150 72-251)
T1 construct: the whole entry is named
T1 sequence: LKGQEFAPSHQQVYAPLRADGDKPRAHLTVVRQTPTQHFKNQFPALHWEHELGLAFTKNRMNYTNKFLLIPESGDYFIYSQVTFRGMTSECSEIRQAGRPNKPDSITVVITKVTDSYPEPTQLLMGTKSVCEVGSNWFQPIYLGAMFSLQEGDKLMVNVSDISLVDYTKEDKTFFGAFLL


Legend:
[1] = target: T1, human TL1A extracellular domain with …; test: SPR Run 6, purified Ab captured on Protein A, TL1A 5 ug/mL, timepoint 44
Excerpt: (§1) 1.5. Antibody expression and antigen binding as determined by SPR. Using a CM5 sensor chip (GE Healthcare) Protein A (Pierce) was coupled to the chip surface using an amine coupling kit (GE Healthcare). Protein A was coupled on flow cell 1 and 2 (or alternatively 3 and 4) using a BIACORE® T200. […] The amount of supernatant or purified protein (as well as the concentration) injected during the capture stage varied between runs and is specified in the header of the Tables 3-11. At the end of injection of the supernatant or purified antibody the change in response units was measured. This value was reported as Capture Level in Tables 3-11. […] The response units were measured prior to the end of the dissociation phase. […] The sensorgrams were double referenced (flow cell 2 is subtracted from flow cell 1 and a buffer blank). As there were a large number of antibody variants to screen, these were screened across different runs (Tables 3-11). […] A summary of the conditions used in each run is below:
(§2) 2.1. […] In some experiment the antibodies were purified using Protein A chromatography (See 1.4) and purified antibodies were used in BIACORE® (GE Healthcare) experiments.

[2] = target: T1, human TL1A extracellular domain with …; test: SPR Run 6, purified Ab captured on Protein A, TL1A 5 ug/mL, timepoint 170
Excerpt: as §1, §2

TL1A Binding Level (Early) [1] | TL1A Binding Level (Late) [2] | Binder
129 RU | 118 RU | 320-436 (antibody, human IgG1, name in Kabat numbering, V domains shown, human IgG1, lambda) VH: QVQLVQSGAEVKKPGASVKVSCKASGYTFTWYDINWVRQAPGQGLEWMGWLNPNSGNTGYAQKFQGRVTMTADRSTSTAYMELSSLRSEDTAVYYCAREVPETAAFEYWGQGTLVTVSS VL: QSVLTQPPSVSGAPGQRVTISCTSSSSDIGAGLGVHWYQQLPGTAPKLLIEGYYNRPSGVPDRFSGSKSGTSASLTITGLLPEDEGDYYCQSYDGTLSALFGGGTKLTVLG
18 RU | 8 RU | 320-446 (antibody, human IgG1, name in Kabat numbering, V domains shown, human IgG1, lambda) VH: QVQLVQSGAEVKKPGASVKVSCKASGYTFTSYAINWVRQAPGQGLEWMGWLNPNSGNTGYAQKFQGRVTMTADRSTSTAYMELSSLRSEDTAVYYCAREVPETAAFEYWGQGTLVTVSS VL: QSVLTQPPSVSGAPGQRVTISCTSSSSDIGAGLGVHWYQQLPGTAPKLLIEGYYNRPSGVPDRFSGSKSGTSASLTITGLLPEDEGDYYCQSYDGTLSALFGGGTKLTVLG
111 RU | 104 RU | 320-453 (antibody, human IgG1, name in Kabat numbering, V domains shown, human IgG1, lambda) VH: QVQLVQSGAEVKKPGASVKVSCKASGYTFTSYYINWVRQAPGQGLEWMGWLNPNSGNTGYAQKFQGRVTMTADRSTSTAYMELSSLRSEDTAVYYCAREVPETAAFEYWGQGTLVTVSS VL: QSVLTQPPSVSGAPGQRVTISCTSSSSDIGAGLGVHWYQQLPGTAPKLLIEGYYNRPSGVPDRFSGSKSGTSASLTITGLLPEDEGDYYCQSYDGTLSALFGGGTKLTVLG
107 RU | 95 RU | 320-444 (antibody, human IgG1, name in Kabat numbering, V domains shown, human IgG1, lambda) VH: QVQLVQSGAEVKKPGASVKVSCKASGYTFTSLDINWVRQAPGQGLEWMGWLNPNSGNTGYAQKFQGRVTMTADRSTSTAYMELSSLRSEDTAVYYCAREVPETAAFEYWGQGTLVTVSS VL: QSVLTQPPSVSGAPGQRVTISCTSSSSDIGAGLGVHWYQQLPGTAPKLLIEGYYNRPSGVPDRFSGSKSGTSASLTITGLLPEDEGDYYCQSYDGTLSALFGGGTKLTVLG
19 RU | 8 RU | 320-451 (antibody, human IgG1, name in Kabat numbering, V domains shown, human IgG1, lambda) VH: QVQLVQSGAEVKKPGASVKVSCKASGYTFTSYLINWVRQAPGQGLEWMGWLNPNSGNTGYAQKFQGRVTMTADRSTSTAYMELSSLRSEDTAVYYCAREVPETAAFEYWGQGTLVTVSS VL: QSVLTQPPSVSGAPGQRVTISCTSSSSDIGAGLGVHWYQQLPGTAPKLLIEGYYNRPSGVPDRFSGSKSGTSASLTITGLLPEDEGDYYCQSYDGTLSALFGGGTKLTVLG
43 RU | 37 RU | 320-454 (antibody, human IgG1, name in Kabat numbering, V domains shown, human IgG1, lambda) VH: QVQLVQSGAEVKKPGASVKVSCKASGYTFTSYDANWVRQAPGQGLEWMGWLNPNSGNTGYAQKFQGRVTMTADRSTSTAYMELSSLRSEDTAVYYCAREVPETAAFEYWGQGTLVTVSS VL: QSVLTQPPSVSGAPGQRVTISCTSSSSDIGAGLGVHWYQQLPGTAPKLLIEGYYNRPSGVPDRFSGSKSGTSASLTITGLLPEDEGDYYCQSYDGTLSALFGGGTKLTVLG
119 RU | 109 RU | 320-437 (antibody, human IgG1, name in Kabat numbering, V domains shown, human IgG1, lambda) VH: QVQLVQSGAEVKKPGASVKVSCKASGYTFTYYDINWVRQAPGQGLEWMGWLNPNSGNTGYAQKFQGRVTMTADRSTSTAYMELSSLRSEDTAVYYCAREVPETAAFEYWGQGTLVTVSS VL: QSVLTQPPSVSGAPGQRVTISCTSSSSDIGAGLGVHWYQQLPGTAPKLLIEGYYNRPSGVPDRFSGSKSGTSASLTITGLLPEDEGDYYCQSYDGTLSALFGGGTKLTVLG
80 RU | 67 RU | 320-441 (antibody, human IgG1, name in Kabat numbering, V domains shown, human IgG1, lambda) VH: QVQLVQSGAEVKKPGASVKVSCKASGYTFTSDDINWVRQAPGQGLEWMGWLNPNSGNTGYAQKFQGRVTMTADRSTSTAYMELSSLRSEDTAVYYCAREVPETAAFEYWGQGTLVTVSS VL: QSVLTQPPSVSGAPGQRVTISCTSSSSDIGAGLGVHWYQQLPGTAPKLLIEGYYNRPSGVPDRFSGSKSGTSASLTITGLLPEDEGDYYCQSYDGTLSALFGGGTKLTVLG
27 RU | 23 RU | 320-455 (antibody, human IgG1, name in Kabat numbering, V domains shown, human IgG1, lambda) VH: QVQLVQSGAEVKKPGASVKVSCKASGYTFTSYDSNWVRQAPGQGLEWMGWLNPNSGNTGYAQKFQGRVTMTADRSTSTAYMELSSLRSEDTAVYYCAREVPETAAFEYWGQGTLVTVSS VL: QSVLTQPPSVSGAPGQRVTISCTSSSSDIGAGLGVHWYQQLPGTAPKLLIEGYYNRPSGVPDRFSGSKSGTSASLTITGLLPEDEGDYYCQSYDGTLSALFGGGTKLTVLG
84 RU | 78 RU | 320-452 (antibody, human IgG1, name in Kabat numbering, V domains shown, human IgG1, lambda) VH: QVQLVQSGAEVKKPGASVKVSCKASGYTFTSYWINWVRQAPGQGLEWMGWLNPNSGNTGYAQKFQGRVTMTADRSTSTAYMELSSLRSEDTAVYYCAREVPETAAFEYWGQGTLVTVSS VL: QSVLTQPPSVSGAPGQRVTISCTSSSSDIGAGLGVHWYQQLPGTAPKLLIEGYYNRPSGVPDRFSGSKSGTSASLTITGLLPEDEGDYYCQSYDGTLSALFGGGTKLTVLG
119 RU | 108 RU | 320-439 (antibody, human IgG1, name in Kabat numbering, V domains shown, human IgG1, lambda) VH: QVQLVQSGAEVKKPGASVKVSCKASGYTFTSSDINWVRQAPGQGLEWMGWLNPNSGNTGYAQKFQGRVTMTADRSTSTAYMELSSLRSEDTAVYYCAREVPETAAFEYWGQGTLVTVSS VL: QSVLTQPPSVSGAPGQRVTISCTSSSSDIGAGLGVHWYQQLPGTAPKLLIEGYYNRPSGVPDRFSGSKSGTSASLTITGLLPEDEGDYYCQSYDGTLSALFGGGTKLTVLG
76 RU | 59 RU | 320-449 (antibody, human IgG1, name in Kabat numbering, V domains shown, human IgG1, lambda) VH: QVQLVQSGAEVKKPGASVKVSCKASGYTFTSYHINWVRQAPGQGLEWMGWLNPNSGNTGYAQKFQGRVTMTADRSTSTAYMELSSLRSEDTAVYYCAREVPETAAFEYWGQGTLVTVSS VL: QSVLTQPPSVSGAPGQRVTISCTSSSSDIGAGLGVHWYQQLPGTAPKLLIEGYYNRPSGVPDRFSGSKSGTSASLTITGLLPEDEGDYYCQSYDGTLSALFGGGTKLTVLG
52 RU | 46 RU | 320-456 (antibody, human IgG1, name in Kabat numbering, V domains shown, human IgG1, lambda) VH: QVQLVQSGAEVKKPGASVKVSCKASGYTFTSYDQNWVRQAPGQGLEWMGWLNPNSGNTGYAQKFQGRVTMTADRSTSTAYMELSSLRSEDTAVYYCAREVPETAAFEYWGQGTLVTVSS VL: QSVLTQPPSVSGAPGQRVTISCTSSSSDIGAGLGVHWYQQLPGTAPKLLIEGYYNRPSGVPDRFSGSKSGTSASLTITGLLPEDEGDYYCQSYDGTLSALFGGGTKLTVLG
108 RU | 97 RU | 320-440 (antibody, human IgG1, name in Kabat numbering, V domains shown, human IgG1, lambda) VH: QVQLVQSGAEVKKPGASVKVSCKASGYTFTSQDINWVRQAPGQGLEWMGWLNPNSGNTGYAQKFQGRVTMTADRSTSTAYMELSSLRSEDTAVYYCAREVPETAAFEYWGQGTLVTVSS VL: QSVLTQPPSVSGAPGQRVTISCTSSSSDIGAGLGVHWYQQLPGTAPKLLIEGYYNRPSGVPDRFSGSKSGTSASLTITGLLPEDEGDYYCQSYDGTLSALFGGGTKLTVLG
37 RU | 13 RU | 320-447 (antibody, human IgG1, name in Kabat numbering, V domains shown, human IgG1, lambda) VH: QVQLVQSGAEVKKPGASVKVSCKASGYTFTSYSINWVRQAPGQGLEWMGWLNPNSGNTGYAQKFQGRVTMTADRSTSTAYMELSSLRSEDTAVYYCAREVPETAAFEYWGQGTLVTVSS VL: QSVLTQPPSVSGAPGQRVTISCTSSSSDIGAGLGVHWYQQLPGTAPKLLIEGYYNRPSGVPDRFSGSKSGTSASLTITGLLPEDEGDYYCQSYDGTLSALFGGGTKLTVLG
124 RU | 113 RU | 320-442 (antibody, human IgG1, name in Kabat numbering, V domains shown, human IgG1, lambda) VH: QVQLVQSGAEVKKPGASVKVSCKASGYTFTSHDINWVRQAPGQGLEWMGWLNPNSGNTGYAQKFQGRVTMTADRSTSTAYMELSSLRSEDTAVYYCAREVPETAAFEYWGQGTLVTVSS VL: QSVLTQPPSVSGAPGQRVTISCTSSSSDIGAGLGVHWYQQLPGTAPKLLIEGYYNRPSGVPDRFSGSKSGTSASLTITGLLPEDEGDYYCQSYDGTLSALFGGGTKLTVLG
126 RU | 116 RU | 320-438 (antibody, human IgG1, name in Kabat numbering, V domains shown, human IgG1, lambda) VH: QVQLVQSGAEVKKPGASVKVSCKASGYTFTSADINWVRQAPGQGLEWMGWLNPNSGNTGYAQKFQGRVTMTADRSTSTAYMELSSLRSEDTAVYYCAREVPETAAFEYWGQGTLVTVSS VL: QSVLTQPPSVSGAPGQRVTISCTSSSSDIGAGLGVHWYQQLPGTAPKLLIEGYYNRPSGVPDRFSGSKSGTSASLTITGLLPEDEGDYYCQSYDGTLSALFGGGTKLTVLG
